US9040462 (RIGEL PHARMACEUTICALS, dated 2015)

Biological target: Tet DNA binding domain only (UniProt P04483 1-207)
Test: mammalian two-hybrid luciferase reporter, Phoenix cells

Chain of Tet DNA binding domain only (P04483 whole entry, the tested form may be a part): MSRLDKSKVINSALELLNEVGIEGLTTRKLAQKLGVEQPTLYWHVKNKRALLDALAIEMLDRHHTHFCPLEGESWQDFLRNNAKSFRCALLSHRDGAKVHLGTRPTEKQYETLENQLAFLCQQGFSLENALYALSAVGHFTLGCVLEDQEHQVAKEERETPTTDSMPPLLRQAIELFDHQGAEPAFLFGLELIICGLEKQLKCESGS

B1: VP16 activation domain only (other)
chain: APPTDVSLGDELHLDGEDVAMAHADALDDFDLDMLGDGDSPGPGFTPHDSAPYGALDMADFEFEQMFTDALGIDEYGG
notes: also called pVACT
- binding result: no binding
